Data published in patent US12679878B2, “CRF2 receptor agonists and their use in therapy” (SANOFI, priority 2020, dated 2026).
Starred links: 1 amine or outer side, 2 acyl side, 3 side chain; linkers in the order of their positions; H or OH if unused. Non-standard residues stand in square brackets, D forms with d. Groups on a side chain read outwards from the residue. No end group written: not given here. *: point of attachment. C18 diacid = O=C(O)CCCCCCCCCCCCCCCCC(=O)*; γGlu = O=C(O)[C@H](CCC(=O)[*:2])N[*:1]; AEEA = NCCOCCOCC(=O)O; Aib = CC(C)(N)C(=O)O

B1: SEQ ID NO: 75 (peptide)
peptide: IVLSLDVPIKLK([AEEA-AEEA-γGlu-C18 diacid])QILLKQERQKKQRQQAETN[Aib]QILAQV-NH2
modifications: N-terminus assumed
SMILES: CC[C@H](C)[C@H](N)C(=O)N[C@H](C(=O)N[C@@H](CC(C)C)C(=O)N[C@@H](CO)C(=O)N[C@@H](CC(C)C)C(=O)N[C@@H](CC(=O)O)C(=O)N[C@H](C(=O)N1CCC[C@H]1C(=O)N[C@H](C(=O)N[C@@H](CCCCN)C(=O)N[C@@H](CC(C)C)C(=O)N[C@@H](CCCCNC(=O)COCCOCCNC(=O)COCCOCCNC(=O)CC[C@H](NC(=O)CCCCCCCCCCCCCCCCC(=O)O)C(=O)O)C(=O)N[C@@H](CCC(N)=O)C(=O)N[C@H](C(=O)N[C@@H](CC(C)C)C(=O)N[C@@H](CC(C)C)C(=O)N[C@@H](CCCCN)C(=O)N[C@@H](CCC(N)=O)C(=O)N[C@@H](CCC(=O)O)C(=O)N[C@@H](CCCNC(=N)N)C(=O)N[C@@H](CCC(N)=O)C(=O)N[C@@H](CCCCN)C(=O)N[C@@H](CCCCN)C(=O)N[C@@H](CCC(N)=O)C(=O)N[C@@H](CCCNC(=N)N)C(=O)N[C@@H](CCC(N)=O)C(=O)N[C@@H](CCC(N)=O)C(=O)N[C@@H](C)C(=O)N[C@@H](CCC(=O)O)C(=O)N[C@H](C(=O)N[C@@H](CC(N)=O)C(=O)NC(C)(C)C(=O)N[C@@H](CCC(N)=O)C(=O)N[C@H](C(=O)N[C@@H](CC(C)C)C(=O)N[C@@H](C)C(=O)N[C@@H](CCC(N)=O)C(=O)N[C@H](C(N)=O)C(C)C)[C@@H](C)CC)[C@@H](C)O)[C@@H](C)CC)[C@@H](C)CC)C(C)C)C(C)C
B2: SEQ ID NO: 73 (peptide)
peptide: IVLSLDVPIKLK([AEEA-AEEA-γGlu-C18 diacid])QILLEQERQKKQRQKAETN[Aib]QILAQV-NH2
modifications: N-terminus assumed
SMILES: CC[C@H](C)[C@H](N)C(=O)N[C@H](C(=O)N[C@@H](CC(C)C)C(=O)N[C@@H](CO)C(=O)N[C@@H](CC(C)C)C(=O)N[C@@H](CC(=O)O)C(=O)N[C@H](C(=O)N1CCC[C@H]1C(=O)N[C@H](C(=O)N[C@@H](CCCCN)C(=O)N[C@@H](CC(C)C)C(=O)N[C@@H](CCCCNC(=O)COCCOCCNC(=O)COCCOCCNC(=O)CC[C@H](NC(=O)CCCCCCCCCCCCCCCCC(=O)O)C(=O)O)C(=O)N[C@@H](CCC(N)=O)C(=O)N[C@H](C(=O)N[C@@H](CC(C)C)C(=O)N[C@@H](CC(C)C)C(=O)N[C@@H](CCC(=O)O)C(=O)N[C@@H](CCC(N)=O)C(=O)N[C@@H](CCC(=O)O)C(=O)N[C@@H](CCCNC(=N)N)C(=O)N[C@@H](CCC(N)=O)C(=O)N[C@@H](CCCCN)C(=O)N[C@@H](CCCCN)C(=O)N[C@@H](CCC(N)=O)C(=O)N[C@@H](CCCNC(=N)N)C(=O)N[C@@H](CCC(N)=O)C(=O)N[C@@H](CCCCN)C(=O)N[C@@H](C)C(=O)N[C@@H](CCC(=O)O)C(=O)N[C@H](C(=O)N[C@@H](CC(N)=O)C(=O)NC(C)(C)C(=O)N[C@@H](CCC(N)=O)C(=O)N[C@H](C(=O)N[C@@H](CC(C)C)C(=O)N[C@@H](C)C(=O)N[C@@H](CCC(N)=O)C(=O)N[C@H](C(N)=O)C(C)C)[C@@H](C)CC)[C@@H](C)O)[C@@H](C)CC)[C@@H](C)CC)C(C)C)C(C)C
B3: SEQ ID NO: 76 (peptide)
peptide: IVLSLDVPIGLK([AEEA-AEEA-γGlu-C18 diacid])QILLEQERQKKQRQQAETN[Aib]QILAQV-NH2
modifications: N-terminus assumed
SMILES: CC[C@H](C)[C@H](N)C(=O)N[C@H](C(=O)N[C@@H](CC(C)C)C(=O)N[C@@H](CO)C(=O)N[C@@H](CC(C)C)C(=O)N[C@@H](CC(=O)O)C(=O)N[C@H](C(=O)N1CCC[C@H]1C(=O)N[C@H](C(=O)NCC(=O)N[C@@H](CC(C)C)C(=O)N[C@@H](CCCCNC(=O)COCCOCCNC(=O)COCCOCCNC(=O)CC[C@H](NC(=O)CCCCCCCCCCCCCCCCC(=O)O)C(=O)O)C(=O)N[C@@H](CCC(N)=O)C(=O)N[C@H](C(=O)N[C@@H](CC(C)C)C(=O)N[C@@H](CC(C)C)C(=O)N[C@@H](CCC(=O)O)C(=O)N[C@@H](CCC(N)=O)C(=O)N[C@@H](CCC(=O)O)C(=O)N[C@@H](CCCNC(=N)N)C(=O)N[C@@H](CCC(N)=O)C(=O)N[C@@H](CCCCN)C(=O)N[C@@H](CCCCN)C(=O)N[C@@H](CCC(N)=O)C(=O)N[C@@H](CCCNC(=N)N)C(=O)N[C@@H](CCC(N)=O)C(=O)N[C@@H](CCC(N)=O)C(=O)N[C@@H](C)C(=O)N[C@@H](CCC(=O)O)C(=O)N[C@H](C(=O)N[C@@H](CC(N)=O)C(=O)NC(C)(C)C(=O)N[C@@H](CCC(N)=O)C(=O)N[C@H](C(=O)N[C@@H](CC(C)C)C(=O)N[C@@H](C)C(=O)N[C@@H](CCC(N)=O)C(=O)N[C@H](C(N)=O)C(C)C)[C@@H](C)CC)[C@@H](C)O)[C@@H](C)CC)[C@@H](C)CC)C(C)C)C(C)C
B4: SEQ ID NO: 74 (peptide)
peptide: IVLSLDVPIKLK([AEEA-AEEA-γGlu-C18 diacid])QILLEQERQKKQREQAETN[Aib]QILERV-NH2
modifications: N-terminus assumed
SMILES: CC[C@H](C)[C@H](N)C(=O)N[C@H](C(=O)N[C@@H](CC(C)C)C(=O)N[C@@H](CO)C(=O)N[C@@H](CC(C)C)C(=O)N[C@@H](CC(=O)O)C(=O)N[C@H](C(=O)N1CCC[C@H]1C(=O)N[C@H](C(=O)N[C@@H](CCCCN)C(=O)N[C@@H](CC(C)C)C(=O)N[C@@H](CCCCNC(=O)COCCOCCNC(=O)COCCOCCNC(=O)CC[C@H](NC(=O)CCCCCCCCCCCCCCCCC(=O)O)C(=O)O)C(=O)N[C@@H](CCC(N)=O)C(=O)N[C@H](C(=O)N[C@@H](CC(C)C)C(=O)N[C@@H](CC(C)C)C(=O)N[C@@H](CCC(=O)O)C(=O)N[C@@H](CCC(N)=O)C(=O)N[C@@H](CCC(=O)O)C(=O)N[C@@H](CCCNC(=N)N)C(=O)N[C@@H](CCC(N)=O)C(=O)N[C@@H](CCCCN)C(=O)N[C@@H](CCCCN)C(=O)N[C@@H](CCC(N)=O)C(=O)N[C@@H](CCCNC(=N)N)C(=O)N[C@@H](CCC(=O)O)C(=O)N[C@@H](CCC(N)=O)C(=O)N[C@@H](C)C(=O)N[C@@H](CCC(=O)O)C(=O)N[C@H](C(=O)N[C@@H](CC(N)=O)C(=O)NC(C)(C)C(=O)N[C@@H](CCC(N)=O)C(=O)N[C@H](C(=O)N[C@@H](CC(C)C)C(=O)N[C@@H](CCC(=O)O)C(=O)N[C@@H](CCCNC(=N)N)C(=O)N[C@H](C(N)=O)C(C)C)[C@@H](C)CC)[C@@H](C)O)[C@@H](C)CC)[C@@H](C)CC)C(C)C)C(C)C
B5: SEQ ID NO: 72 (peptide)
peptide: IVLSLDVPIKLK([AEEA-AEEA-γGlu-C18 diacid])QILLEQERQKKQRQQAETN[Aib]QILAQV-NH2
modifications: N-terminus assumed
SMILES: CC[C@H](C)[C@H](N)C(=O)N[C@H](C(=O)N[C@@H](CC(C)C)C(=O)N[C@@H](CO)C(=O)N[C@@H](CC(C)C)C(=O)N[C@@H](CC(=O)O)C(=O)N[C@H](C(=O)N1CCC[C@H]1C(=O)N[C@H](C(=O)N[C@@H](CCCCN)C(=O)N[C@@H](CC(C)C)C(=O)N[C@@H](CCCCNC(=O)COCCOCCNC(=O)COCCOCCNC(=O)CC[C@H](NC(=O)CCCCCCCCCCCCCCCCC(=O)O)C(=O)O)C(=O)N[C@@H](CCC(N)=O)C(=O)N[C@H](C(=O)N[C@@H](CC(C)C)C(=O)N[C@@H](CC(C)C)C(=O)N[C@@H](CCC(=O)O)C(=O)N[C@@H](CCC(N)=O)C(=O)N[C@@H](CCC(=O)O)C(=O)N[C@@H](CCCNC(=N)N)C(=O)N[C@@H](CCC(N)=O)C(=O)N[C@@H](CCCCN)C(=O)N[C@@H](CCCCN)C(=O)N[C@@H](CCC(N)=O)C(=O)N[C@@H](CCCNC(=N)N)C(=O)N[C@@H](CCC(N)=O)C(=O)N[C@@H](CCC(N)=O)C(=O)N[C@@H](C)C(=O)N[C@@H](CCC(=O)O)C(=O)N[C@H](C(=O)N[C@@H](CC(N)=O)C(=O)NC(C)(C)C(=O)N[C@@H](CCC(N)=O)C(=O)N[C@H](C(=O)N[C@@H](CC(C)C)C(=O)N[C@@H](C)C(=O)N[C@@H](CCC(N)=O)C(=O)N[C@H](C(N)=O)C(C)C)[C@@H](C)CC)[C@@H](C)O)[C@@H](C)CC)[C@@H](C)CC)C(C)C)C(C)C
B6: SEQ ID NO: 77 (peptide)
peptide: IVLSLDVPIKLK([AEEA-AEEA-γGlu-C18 diacid])QILLKQERQKKQRQKAETNKQILAQV-NH2
modifications: N-terminus assumed
SMILES: CC[C@H](C)[C@H](N)C(=O)N[C@H](C(=O)N[C@@H](CC(C)C)C(=O)N[C@@H](CO)C(=O)N[C@@H](CC(C)C)C(=O)N[C@@H](CC(=O)O)C(=O)N[C@H](C(=O)N1CCC[C@H]1C(=O)N[C@H](C(=O)N[C@@H](CCCCN)C(=O)N[C@@H](CC(C)C)C(=O)N[C@@H](CCCCNC(=O)COCCOCCNC(=O)COCCOCCNC(=O)CC[C@H](NC(=O)CCCCCCCCCCCCCCCCC(=O)O)C(=O)O)C(=O)N[C@@H](CCC(N)=O)C(=O)N[C@H](C(=O)N[C@@H](CC(C)C)C(=O)N[C@@H](CC(C)C)C(=O)N[C@@H](CCCCN)C(=O)N[C@@H](CCC(N)=O)C(=O)N[C@@H](CCC(=O)O)C(=O)N[C@@H](CCCNC(=N)N)C(=O)N[C@@H](CCC(N)=O)C(=O)N[C@@H](CCCCN)C(=O)N[C@@H](CCCCN)C(=O)N[C@@H](CCC(N)=O)C(=O)N[C@@H](CCCNC(=N)N)C(=O)N[C@@H](CCC(N)=O)C(=O)N[C@@H](CCCCN)C(=O)N[C@@H](C)C(=O)N[C@@H](CCC(=O)O)C(=O)N[C@H](C(=O)N[C@@H](CC(N)=O)C(=O)N[C@@H](CCCCN)C(=O)N[C@@H](CCC(N)=O)C(=O)N[C@H](C(=O)N[C@@H](CC(C)C)C(=O)N[C@@H](C)C(=O)N[C@@H](CCC(N)=O)C(=O)N[C@H](C(N)=O)C(C)C)[C@@H](C)CC)[C@@H](C)O)[C@@H](C)CC)[C@@H](C)CC)C(C)C)C(C)C

Target: human corticotropin-releasing factor 2α (CRF2 α receptor) (human), Q13324
Sequence (Q13324 20-411): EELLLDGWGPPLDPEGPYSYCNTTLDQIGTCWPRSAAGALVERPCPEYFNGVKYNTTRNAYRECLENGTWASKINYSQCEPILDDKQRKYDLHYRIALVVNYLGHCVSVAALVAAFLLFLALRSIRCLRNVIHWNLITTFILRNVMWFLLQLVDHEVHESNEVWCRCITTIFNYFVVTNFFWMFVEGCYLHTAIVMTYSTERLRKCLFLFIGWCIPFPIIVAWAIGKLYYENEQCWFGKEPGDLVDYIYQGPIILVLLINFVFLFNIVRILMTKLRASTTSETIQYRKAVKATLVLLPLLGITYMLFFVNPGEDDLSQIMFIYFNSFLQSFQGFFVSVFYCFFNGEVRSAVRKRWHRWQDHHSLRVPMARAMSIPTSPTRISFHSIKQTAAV
Experiment: cell-based or functional assay

| EC50 [nM], 0% HSA [nM] | Binder |
| --- | --- |
| 0.48 | B1 |
| 2.6 | B2 |
| 13.4 | B3 |
| 2.12 | B4 |
| 0.65 | B5 |
| 0.33 | B6 |
